In general, Kd refers to the equilibrium constant for the complex coming apart. Broadly, the koff is a measure of how fast the partners let go of each other. In general, kon refers to a measure of how fast the partners come together. Read a high kon as fast association. Broadly, the EC50 (read off the curve) is the midpoint of the concentration-response curve. High values mean lower potency in that assay, low ones higher potency in that assay. In general, EC50 refers to the midpoint of the concentration-response curve. A higher EC50 goes with a less potent agent.

Experiment [1] addresses T1, bL4_C36 (biotin-GSGS-C36-NH2, HIV-1 HXB2 Env gp41 HR2 peptide) (HIV-1 (HXB2 strain), N-terminal biotin; C-terminal amide).
T1 construct: also called C-peptide
T1 peptide: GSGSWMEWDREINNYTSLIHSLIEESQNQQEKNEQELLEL
As to the kind of experiment: SPR, bL4_C36 on streptavidin chip, Langmuir model. A general note: SPR reads the build-up and loss of mass on a sensor chip optically.

In experiment [2] the target is T1, bL4_C36 (biotin-GSGS-C36-NH2, HIV-1 …). As to the kind of experiment: SPR, bL4_C36 immobilized on a streptavidin sensor chip, Alphabody injected at 250 to 7.8 nM, Langmuir model (phase 1).
For experiment [3] the target is unchanged. Put plainly: ELISA, bL4_C36 immobilized on neutravidin-coated plates, detection with Penta-His-HRP antibody, A450nm. A general note: An ELISA detects its analyte on a solid surface through an enzyme-linked reagent.
The target is the same in experiment [4]. As to the kind of experiment: ELISA, peptide on neutravidin-coated plate, Penta-His-HRP detection.
For experiment [5] the target is unchanged. Put plainly: SPR, bL4_C36 on streptavidin chip; disulfide dimer, bidentate binding.
For experiment [6] the target is unchanged. Put plainly: SPR, two-step model, second phase.
For experiment [7] the target is unchanged. Put plainly: SPR, bL4_C36 immobilized on a streptavidin sensor chip, two-step kinetic binding model, phase 1.
For experiment [8] the target is unchanged. Put plainly: SPR, two-step model, first fast association phase.
Experiment [9] shares this target. As to the kind of experiment: SPR, bL4_C36 immobilized on a streptavidin sensor chip, two-step kinetic binding model, global constant of phases 1+2 (KD1*KD2).
The target is the same in experiment [10]. Put plainly: SPR, bL4_C36 immobilized on a streptavidin sensor chip, two-step kinetic binding model, phase 2 (dimensionless).
The target is the same in experiment [11]. Put plainly: SPR, two-step model, global KD.

B1: single-chain Alphabody scAB_Env04 (designed binder)
chain: MGHHHHHHHHHHSSGHIEGRHMSIEEIQKPIATIQETIAWIQKTIYGMTGGSGGGSGMSIEEIQKQIAAIQKQIAAIQKQIYAMTGGSGGGSGGGSGGGSGMSIEEIQKQIRAIFEQIVAICKQIIAMTP
notes: Soluble construct with N-terminal His10 tag (pET16b)
As for B1, the Kd in experiment [1] was determined as 200 nM. In experiment [2], this molecule yielded a Kd of 167 nM, a koff of 0.1 s⁻¹ and an on-rate (kon) of 570000 M⁻¹ s⁻¹. The “EC50 (read off the curve)” value in experiment [3] was approximately 0.02 µM.

B2: single-chain Alphabody scAB_Env03 (designed binder)
chain: MGHHHHHHHHHHSSGHIEGRHMSIEEIQKPIATIQEAIAWIQKKIYMMTGGSGGGSGGGSGGGSGMSIEEIQKQIAAIQKQIAAIQKQIYAMTGGSGGGSGGGSGGGSGMSIEEIQKQIVAIMEQIVAIVKQISAMTP
notes: expressed soluble in E. coli with an N-terminal His10 tag; not shown: N-terminal 10-histidine tag from pET16b
For the molecule B2, the Kd was found to be 200 nM in experiment [1] and 211 nM in experiment [2]. The molecule also showed an EC50 in experiment [4] of approximately 6 nM. Further, the “EC50 (read off the curve)” value in [3] is approximately 0.005 µM.

B3: single-chain Alphabody scAB_Env03_KC (designed binder)
chain: MGHHHHHHHHHHSSGHIEGRHMSIEEIQKPIATIQEAIAWIQKKIYMMTGGSGGGSGGGSGGGSGMSIEEIQKQIAAIQCQIAAIQKQIYAMTGGSGGGSGGGSGGGSGMSIEEIQKQIVAIMEQIVAIVKQISAMTP
modifications: Interchain disulfide between Cys80 of chain 1 and Cys80 of chain 2 (homodimer; paragraph 268, and FIG.11 prints 'scAB_Env03_KC (dimer)').
notes: also called Env03 Cys-mutant
B3: in [5], the Kd was determined as 0.62 nM, the koff stood at 2.4e-05 s⁻¹ and the kon turned out to be 38000 M⁻¹ s⁻¹.

B4: single-chain Alphabody scAB_Env05 (designed binder)
chain: MGHHHHHHHHHHSSGHIEGRHMSIEEIQKHIASIQEYIAWIQKEIYRMTGGSGGGSGGGSGGGSGMSIEEIQKQIAAIQKQIAAIQKQIYAMTGGSGGGSGGGSGGGSGMSIEEIQKQILAIMEQIYAIVKQINAMTP
notes: as for B1
Consider B4, for which, in [1], the affinity, expressed as Kd, was 4000 nM. Also, in experiment [2], the Kd came to 3930 nM, the koff stood at 0.32 s⁻¹ and the kon worked out at 81000 M⁻¹ s⁻¹. Besides, in [3], the “EC50 (read off the curve)” value was approximately 0.04 µM.

B5: single-chain Alphabody scAB_Env02 (designed binder)
chain: MGHHHHHHHHHHSSGHIEGRHMSIEEIQKPIASIQELIATIQKYIYIMTGGSGGGSGGGSGGGSGMSIEEIQKQIAAIQKQIAAIQKQIYAMTGGSGGGSGGGSGGGSGMSIEEIQKQIQAITEQIIAISKQIIAMTP
notes: as for B1
Take B5: in [3], the “EC50 (read off the curve)” value is approximately 0.02 µM.

B6: single-chain Alphabody scAB_Env03_PA (designed binder)
chain: MGHHHHHHHHHHSSGHIEGRHMSIEEIQKAIATIQEAIAWIQKKIYMMTGGSGGGSGGGSGGGSGMSIEEIQKQIAAIQKQIAAIQKQIYAMTGGSGGGSGGGSGGGSGMSIEEIQKQIVAIMEQIVAIVKQISAMTP
notes: Made by the same protocol as the parent (N-terminal His10 tag); The substitution has no printed number
Take B6: the koff in [6] was approximately 0.0001 s⁻¹. For the same molecule, the “KD (phase 1)” value in experiment [7] stood at 558 nM. In experiment [8], this molecule gave a kon of approximately 100000 M⁻¹ s⁻¹. Further, the Kd was 13 nM in experiment [9] and approximately 10 nM in experiment [11]. For the same molecule, in experiment [10], the “KD (phase 2)” value is 0.024 (-).

(Values after US20140294828A1 (COMPLIX, published 2014).)
